Our source for the binding signal and activity (% of wild-type transposon) values is patent US20190169638.

Data set [1] concerns Sleeping Beauty transposase N123 (PAIRED DNA-binding domain, PAI+RED) (synthetic (Sleeping Beauty, reconstructed salmonid Tc1/mariner)?). The experiment in a line: EMSA. Particulars: reference for CAST sequences.
The test system of data set [2] is Sleeping Beauty transposase SB10 (synthetic (Sleeping Beauty, reconstructed salmonid Tc1/mariner)?). The experiment in a line: cell_activity. Particulars: transposition in HeLa.

Take “ACATACACTTAAGTGTATGTAAACTTCCGACTTCAACTTGG / GACTCCAAGTTGAAGTCGGAAGTTTACATACACTTAAGTGTATGT [14DR (outer DR) probe]”: the binding signal in data set [1] was found to be 1 fold. As to “GTACATACACGCGCACTTCTGACCCACTGG (double strand) [pT/neo transposon with CAST-5/wt hybrid inner DRs]”, the activity (% of wild-type transposon) in data set [2] came out at 130.

In turn, “GTGACGACCCCAAGTGTACATACACGCGCC (double strand) [pT/neo transposon with 12DRs replaced by CAST-5]” gave an activity (% of wild-type transposon) in data set [2] of 65. Regarding “GTGACGACCCCAAGTGTACATACACGCGCC (double strand) [pT/neo transposon with 14DRs replaced by CAST-5]”, the activity (% of wild-type transposon) in data set [2] was 3.

As for “GTGACGACCCCAAGTGTACATACACGCGCC (double strand) [pT/neo transposon with all four DRs CAST-5]”, the activity (% of wild-type transposon) in data set [2] worked out at 2.2.
